Laboratory results reported in patent US20120190834A1.

Columns and labels:
[1] = target: TFPI (source not stated; Examples 8, 12 and 45), P10646
[2] = target: recombinant human TFPI purified from a cell line from Novo Nordisk

TFPI (source not stated; Examples 8, 12 and 45), P10646, sequence (P10646 whole entry, looked up): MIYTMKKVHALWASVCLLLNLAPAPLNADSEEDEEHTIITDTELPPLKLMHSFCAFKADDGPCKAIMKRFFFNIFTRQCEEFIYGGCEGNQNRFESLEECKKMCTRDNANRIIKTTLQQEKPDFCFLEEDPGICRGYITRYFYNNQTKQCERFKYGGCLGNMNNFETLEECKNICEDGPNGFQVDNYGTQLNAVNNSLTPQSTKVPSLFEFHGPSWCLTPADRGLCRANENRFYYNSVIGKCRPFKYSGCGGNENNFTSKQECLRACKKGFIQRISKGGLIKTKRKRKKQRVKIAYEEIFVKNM

B1: tissue factor:Factor VIIa complex (sources not stated; Examples 8 and 12) (protein)
chain 1: SGTTNTVAAYNLTWKSTNFKTILEWEPKPVNQVYTVQISTKSGDWKSKCFYTTDTECDLTDEIVKDVKQTYLARVFSYPAGNVESTGSAGEPLYENSPEFTPYLETNLGQPTIQSFEQVGTKVNVTVEDERTLVRRNNTFLSLRDVFGKDLIYTLYYWKSSSSGKKTAKTNTNEFLIDVDKGENYCFSVQAVIPSRTVNRKSTDSPVECMGQEKGEFREIFYIIGAVVFVVIILVIILAISLHKCRKAGVGQSWKENSPLNVS
chain 2: ANAFLEELRPGSLERECKEEQCSFEEAREIFKDAERTKLFWISYSDGDQCASSPCQNGGSCKDQLQSYICFCLPAFEGRNCETHKDDQLICVNENGGCEQYCSDHTGTKRSCRCHEGYSLLADGVSCTPTVEYPCGKIPILEKRNASKPQGR
chain 3: IVGGKVCPKGECPWQVLLLVNGAQLCGGTLINTIWVVSAAHCFDKIKNWRNLIAVLGEHDLSEHDGDEQSRRVAQVIIPSTYVPGTTNHDIALLRLHQPVVLTDHVVPLCLPERTFSERTLAFVRFSLVSGWGQLLDRGATALELMVLNVPRLMTQDCLQQSRKVGDSPNITEYMFCAGYSDGSKDSCKGDSGGPHATHYRGTWYLTGIVSWGQGCATVGHFGVYTRVSQYIEWLQKLMRSEPRPGVLLRAPFP
With B1 the “TF:FVIIa activity, hydrolysis of fluorogenic substrate SN-17c; 8 nM TFPI” value [1] was “TFPI inhibited approximately 50% of TF:FVIIa activity under these conditions” and the “rate of FXa generation in the extrinsic tenase (Xase) assay (chromogenic FXa substrate, A405), normalised at 4 minutes; 1 nM TFPI” value [1] was “TFPI reduced the rate of FXa generation at 4 minutes by nearly 70%”.

B2: extrinsic Xase complex: re-lipidated recombinant human tissue factor (Innovin) and factor VIIa (Enzyme Research Laboratories) (protein)
chain 1: SGTTNTVAAYNLTWKSTNFKTILEWEPKPVNQVYTVQISTKSGDWKSKCFYTTDTECDLTDEIVKDVKQTYLARVFSYPAGNVESTGSAGEPLYENSPEFTPYLETNLGQPTIQSFEQVGTKVNVTVEDERTLVRRNNTFLSLRDVFGKDLIYTLYYWKSSSSGKKTAKTNTNEFLIDVDKGENYCFSVQAVIPSRTVNRKSTDSPVECMGQEKGEFREIFYIIGAVVFVVIILVIILAISLHKCRKAGVGQSWKENSPLNVS
chain 2: ANAFLEELRPGSLERECKEEQCSFEEAREIFKDAERTKLFWISYSDGDQCASSPCQNGGSCKDQLQSYICFCLPAFEGRNCETHKDDQLICVNENGGCEQYCSDHTGTKRSCRCHEGYSLLADGVSCTPTVEYPCGKIPILEKRNASKPQGR
chain 3: IVGGKVCPKGECPWQVLLLVNGAQLCGGTLINTIWVVSAAHCFDKIKNWRNLIAVLGEHDLSEHDGDEQSRRVAQVIIPSTYVPGTTNHDIALLRLHQPVVLTDHVVPLCLPERTFSERTLAFVRFSLVSGWGQLLDRGATALELMVLNVPRLMTQDCLQQSRKVGDSPNITEYMFCAGYSDGSKDSCKGDSGGPHATHYRGTWYLTGIVSWGQGCATVGHFGVYTRVSQYIEWLQKLMRSEPRPGVLLRAPFP
In the case of B2, the “FXa generation by the extrinsic Xase (chromogenic FXa substrate); 2 nM TFPI” value [2] is reported as “curve #6 shows that TFPI shuts down Xa generation in the absence of ARC19499”.

B3: Factor Xa (source not stated; Example 45) (protein)
chain 1: ANSFLEEMKKGHLERECMEETCSYEEAREVFEDSDKTNEFWNKYKDGDQCETSPCQNQGKCKDGLGEYTCTCLEGFEGKNCELFTRKLCSLDNGDCDQFCHEEQNSVVCSCARGYTLADNGKACIPTGPYPCGKQTLER
chain 2: IVGGQECKDGECPWQALLINEENEGFCGGTILSEFYILTAAHCLYQAKRFKVRVGDRNTEQEEGGEAVHEVEVVIKHNRFTKETYDFDIAVLRLKTPITFRMNVAPACLPERDWAESTLMTQKTGIVSGFGRTHEKGRQSTRLKMLEVPYVDRNSCKLSSSFIITQNMFCAGYDTKQEDACQGDSGGPHVTRFKDTYFVTGIVSWGEGCARKGKYGIYTKVTAFLKWIDRSMKTRGLPKAKSHAPEVITSSPLK
B3 was tested, and the “FXa (1 nM) cleavage of chromogenic substrate S-2765, substrate added last” value [1] was “In the presence of ≧8 nM TFPI, inhibition is nearly complete under these conditions and little product is formed”.

B4: prothrombinase complex: factor Xa (Enzyme Research Laboratories) and factor Va (Haematologic Technologies) on phospholipid membrane (protein)
chain 1: ANSFLEEMKKGHLERECMEETCSYEEAREVFEDSDKTNEFWNKYKDGDQCETSPCQNQGKCKDGLGEYTCTCLEGFEGKNCELFTRKLCSLDNGDCDQFCHEEQNSVVCSCARGYTLADNGKACIPTGPYPCGKQTLER
chain 2: IVGGQECKDGECPWQALLINEENEGFCGGTILSEFYILTAAHCLYQAKRFKVRVGDRNTEQEEGGEAVHEVEVVIKHNRFTKETYDFDIAVLRLKTPITFRMNVAPACLPERDWAESTLMTQKTGIVSGFGRTHEKGRQSTRLKMLEVPYVDRNSCKLSSSFIITQNMFCAGYDTKQEDACQGDSGGPHVTRFKDTYFVTGIVSWGEGCARKGKYGIYTKVTAFLKWIDRSMKTRGLPKAKSHAPEVITSSPLK
chain 3: AQLRQFYVAAQGISWSYRPEPTNSSLNLSVTSFKKIVYREYEPYFKKEKPQSTISGLLGPTLYAEVGDIIKVHFKNKADKPLSIHPQGIRYSKLSEGASYLDHTFPAEKMDDAVAPGREYTYEWSISEDSGPTHDDPPCLTHIYYSHENLIEDFNSGLIGPLLICKKGTLTEGGTQKTFDKQIVLLFAVFDESKSWSQSSSLMYTVNGYVNGTMPDITVCAHDHISWHLLGMSSGPELFSIHFNGQVLEQNHHKVSAITLVSATSTTANMTVGPEGKWIISSLTPKHLQAGMQAYIDIKNCPKKTRNLKKITREQRRHMKRWEYFIAAEEVIWDYAPVIPANMDKKYRSQHLDNFSNQIGKHYKKVMYTQYEDESFTKHTVNPNMKEDGILGPIIRAQVRDTLKIVFKNMASRPYSIYPHGVTFSPYEDEVNSSFTSGRNNTMIRAVQPGETYTYKWNILEFDEPTENDAQCLTRPYYSDVDIMRDIASGLIGLLLICKSRSLDRRGIQRAADIEQQAVFAVFDENKSWYLEDNINKFCENPDEVKRDDPKFYESNIMSTINGYVPESITTLGFCFDDTVQWHFCSVGTQNEILTIHFTGHSFIYGKRHEDTLTLFPMRGESVTVTMDNVGTWMLTSMNSSPRSKKLRLKFRDVKCIPDDDEDSYEIFEPPESTVMATRKMHDRLEPEDEESDADYDYQNRLAAALGIR
chain 4: SNNGNRRNYYIAAEEISWDYSEFVQRETDIEDSDDIPEDTTYKKVVFRKYLDSTFTKRDPRGEYEEHLGILGPIIRAEVDDVIQVRFKNLASRPYSLHAHGLSYEKSSEGKTYEDDSPEWFKEDNAVQPNSSYTYVWHATERSGPESPGSACRAWAYYSAVNPEKDIHSGLIGPLLICQKGILHKDSNMPMDMREFVLLFMTFDEKKSWYYEKKSRSSWRLTSSEMKKSHEFHAINGMIYSLPGLKMYEQEWVRLHLLNIGGSQDIHVVHFHGQTLLENGNKQHQLGVWPLLPGSFKTLEMKASKPGWWLLNTEVGENQRAGMQTPFLIMDRDCRMPMGLSTGIISDSQIKASEFLGYWEPRLARLNNGGSYNAWSVEKLAAEFASKPWIQVDMQKEVIITGIQTQGAKHYLKSCYTTEFYVAYSSNQINWQIFKGNSTRNVMYFNGNSDASTIKENQFDPPIVARYIRISPTRAYNRPTLRLELQGCEVNGCSTPLGMENGKIENKQITASSFKKSWWGDYWEPFRARLNAQGRVNAWQAKANNNKQWLEIDLLKIKKITAIITQGCKSLSSEMYVKSYTIHYSEQGVEWKPYRLKSSMVDKIFEGNTNTKGHVKNFFNPPIISRFIRVIPKTWNQSIALRLELFGCDIY
B4 showed a prothrombinase activity (thrombin generation from prothrombin, chromogenic thrombin substrate); 1 nM TFPI (fraction of activity) [2] of 0.33.

B5: Factor Xa (Enzyme Research Laboratories) (protein)
chain 1: ANSFLEEMKKGHLERECMEETCSYEEAREVFEDSDKTNEFWNKYKDGDQCETSPCQNQGKCKDGLGEYTCTCLEGFEGKNCELFTRKLCSLDNGDCDQFCHEEQNSVVCSCARGYTLADNGKACIPTGPYPCGKQTLER
chain 2: IVGGQECKDGECPWQALLINEENEGFCGGTILSEFYILTAAHCLYQAKRFKVRVGDRNTEQEEGGEAVHEVEVVIKHNRFTKETYDFDIAVLRLKTPITFRMNVAPACLPERDWAESTLMTQKTGIVSGFGRTHEKGRQSTRLKMLEVPYVDRNSCKLSSSFIITQNMFCAGYDTKQEDACQGDSGGPHVTRFKDTYFVTGIVSWGEGCARKGKYGIYTKVTAFLKWIDRSMKTRGLPKAKSHAPEVITSSPLK
For B5, the “FXa (0.2 nM) cleavage of chromogenic substrate Pefachrome FXa 5523; 2 nM TFPI” value [2] was “When TFPI and the chromogenic substrate were added to FXa at the same time, the rate of substrate cleavage decreased gradually as FXa was inhibited by TFPI”.
